Measured values reported in US20250115655A1, “PHARMACEUTICALS AND DEVICES FOR THE COVALENT IMMOBILIZATION TO THE EXTRACELLULAR MATRIX BY TRANSGLUTAMINASE” (JULIUS-MAXIMILIANS-UNIVERSITÄT WÜRZBURG, priority 2017, published 2025).
Entries after “also recorded” stand apart in the source; their conditions may differ.

Assays:
Factor XIIIa = target: T1, Factor XIIIa (Homo sapiens, UniProt P00488); test: FXIIIa-mediated coupling of IGF-I to linker containing the glutamine substrate sequence (SDS-PAGE, western blot, HPLC kinetics); assay type: biochemical
T1 construct: purchased Fibrogammin®
T1 sequence (P00488 39-732 limits assumed): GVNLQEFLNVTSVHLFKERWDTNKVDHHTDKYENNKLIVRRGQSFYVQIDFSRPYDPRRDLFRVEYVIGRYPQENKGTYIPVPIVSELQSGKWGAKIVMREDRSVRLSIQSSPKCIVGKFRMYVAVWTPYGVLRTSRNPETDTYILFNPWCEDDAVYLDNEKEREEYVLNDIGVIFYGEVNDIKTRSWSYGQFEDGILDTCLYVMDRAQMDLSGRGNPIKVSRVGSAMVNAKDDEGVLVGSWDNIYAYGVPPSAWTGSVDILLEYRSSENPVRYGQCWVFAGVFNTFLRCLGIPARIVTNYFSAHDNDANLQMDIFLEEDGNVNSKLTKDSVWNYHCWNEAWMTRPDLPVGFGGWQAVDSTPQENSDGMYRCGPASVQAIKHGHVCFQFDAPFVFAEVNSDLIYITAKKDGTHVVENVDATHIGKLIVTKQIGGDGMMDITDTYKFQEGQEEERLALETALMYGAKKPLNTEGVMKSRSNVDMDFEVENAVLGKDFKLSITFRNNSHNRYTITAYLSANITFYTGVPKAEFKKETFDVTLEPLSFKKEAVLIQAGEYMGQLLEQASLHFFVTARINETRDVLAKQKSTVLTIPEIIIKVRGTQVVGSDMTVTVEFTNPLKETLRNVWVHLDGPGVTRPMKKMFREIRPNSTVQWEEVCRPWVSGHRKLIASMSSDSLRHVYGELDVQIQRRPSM
Protocol: The specificity and efficiency of the reaction was analyzed and compared to the isolated D domain (SEQ ID NO: 1) using a linker containing the glutamine substrate sequence derived from α-2 plasmin inhibitor and analyzed by SDS-PAGE and by western blotting using a monoclonal anti-IGF-I antibody (FIG. 4A). The transamidation was carried out at 37° C. for 5 min in Tris buffer (20 mM Tris-HCL, 150 mM sodium chloride, pH 7.6) with 0.1 M calcium chloride in presence of factor XIIIa (Fibrogammin®, activated with 0.02 U/ml thrombin). The resulting conjugate was analyzed by MALDI-MS and the site-specific conjugation confirmed. […] FIGS. 4A-4B: (4A) SDS PAGE and immunoblotting of human IGF-I after incubation with the glutamine substrate peptide modelled from the N-terminus of alpha-2 plasmin inhibitor (SEQ ID NO: 11) attached to a protease cleavable linker (PCL) in absence and presence of FXIIIa. (4B) HPLC analysis of IGF-I coupling kinetics mediated by […].

fibronectin = test: Immobilization of native IGF-I on fibroblast derived isolated ECM and soluble fibronectin in presence of Factor XIIIa; assay type: biochemical; conditions: 37° C., 10 min, antibody staining (FIG. 6A)
Protocol: (§1) To test this strategy, native IGF-I was immobilized onto fibroblast derived, isolated extracellular matrix in presence of Factor XIIIa (FIGS. 6A-6B). […] The transamidation reaction was carried out at 37° C. for 10 min in Tris buffer at pH 7.6 and is suitable for performance under physiological conditions. […] Bioactivity of immobilized IGF-I was confirmed by promoting cell proliferation of mouse myoblast cells (FIGS. 7A-7B).
FIGS. 6A-6B: (6A) Confocal laser scanning microscopy images of IGF-I immobilized on isolated ECM. The immobilized IGF-I was visualized with a monoclonal IGF-I antibody (green) und co-localized with fibronectin (red). (6B) Western Blot of human IGF-I after incubation with fibronectin in presence (lane 1) and absence (lane 2) of factor XIIIa with unreacted IGF-I as control (lane 3).

C2C12 myoblasts = test: Bioactivity of ECM-immobilized IGF-I: C2C12 myoblast proliferation (WST-1); assay type: cell-based; conditions: mouse myoblast cells, 48 hours
Protocol: as §1
FIGS. 7A-7B: Bioactivity of ECM-immobilized IGF-I. (7A) Native IGF-I was coupled to ECM in presence/absence of factor XIIIa, followed by seeding of C2C12 myoblasts on this naturally derived matrix and cell proliferation was measured after 48 hours incubation using WST-1 (Data are shown as mean±STDEV, n=3; ** p<0.01). (7B) The cells were fixed, stained with actin (green) and DAPI (cell nuclei, blue) and ECM-immobilized IGF-I was visualized using a monoclonal IGF-I antibody (red).

[1] = doses of 0.12 mg/kg, subcutaneous injection; cited from earlier work

| crosslinking of the complete protein, reaction kinetics by HPLC (Factor XIIIa; 37° C., Tris buffer pH 7.6 (FIG. 4B)) | kinetics of the coupling reaction (Factor XIIIa; human factor XIIIa) [min] | Substance | co-localization with fibronectin after conjugation to the ECM (fibronectin) | bioactivity of immobilized IGF-I (cell proliferation) (C2C12 myoblasts) | half-life [1] [h] |
| --- | --- | --- | --- | --- | --- |
| exceptionally fast and efficient | < 2 | IGF-I: Human IGF-I, peptide hormone of 7.6 kDa, 70 amino acids | confirmed the co-localization with fibronectin | confirmed; also recorded: preserved | – |
| – | – | Mecasermin: Recombinant human IGF-I | – | – | 5.8 |
